Laboratory results reported in publication PMC11102521.

Target: Staphylococcal enterotoxin A (SEA) (UniProt P0A0L2 25-257)
Assay: […], Tris-HCl pH 7.4, 2.7 mM KCl, 1 mM CaCl2, 0.5 mM MgCl2; 30 min at 25 °C in 100 µL, […]
Conditions: protein: commercial; tags: biotinylated, immobilized on streptavidin magnetic beads

Sequence of Staphylococcal enterotoxin A (SEA) (P0A0L2 25-257): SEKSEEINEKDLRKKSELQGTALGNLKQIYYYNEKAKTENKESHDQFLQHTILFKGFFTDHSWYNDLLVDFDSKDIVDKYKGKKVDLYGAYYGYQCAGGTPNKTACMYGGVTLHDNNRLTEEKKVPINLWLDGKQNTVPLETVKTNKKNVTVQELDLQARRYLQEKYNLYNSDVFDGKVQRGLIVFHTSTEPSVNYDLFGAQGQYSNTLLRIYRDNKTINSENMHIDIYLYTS

Row | Binder | binding result | Kd [nM]
1 | Apt1 (Aptamer_301794) (ssDNA) DNA: AGGCCAACTGGATAGCGAATAGAACTCTGCCGTGGGGTGCAGTTTTAATTGTACGTTCTCGAATTCAGCACTACCTTTTGGCAAACGCTAATAAGGG | binds | –
2 | Apt5 (Aptamer_253457) (ssDNA) DNA: AGGCCAACTGGATAGCGAATTTGCAATCAGCGTGGGTGGGTTTCTTTTGCGTGGTGTGTCGAATTCAGCACTACCTTTTGGCAAACGCTAATAAGGG | – | 13.4 ± 1.86
3 | Apt2 (Aptamer_207452) (ssDNA) DNA: AGGCCAACTGGATAGCGAATGTGGCAGTCGGTTTTGACTTGCGCTCTTGCATCATTATTCGAATTCAGCACTACCTTTTGGCAAACGCTAATAAGGG | binds | –
4 | Apt4 (Aptamer_423283) (ssDNA) DNA: AGGCCAACTGGATAGCGAATGTTAGTGGACTCGGTTTGGACGTTCTCTCTTCTCGAATGCGAATTCAGCACTACCTTTTGGCAAACGCTAATAAGGG | binds | –
